Experimental data taken from PMC9412104, “Biochemical and Structural Insights on the Poplar Tau Glutathione Transferase GSTU19 and 20 Paralogs Binding Flavonoids” (Frontiers in Molecular Biosciences, 2022).

Legend:
[1] = target: Populus trichocarpa tau glutathione transferase GSTU19 (PtGSTU19) (Populus trichocarpa); assay: SEC-MALS; purified untagged recombinant protein; conditions not told in the text shown (Supplementary Figure S3B)
[2] = target: Populus trichocarpa tau glutathione transferase GSTU20 (PtGSTU20) (Populus trichocarpa); assay: as above
S=C=NCCc1ccccc1 = assay: purified protein, by the assay type; conditions: pH 8.0; 25.0 °C
CCCCCC(O)C=CC=O = assay: purified protein, by the assay type; conditions: pH 8.0; 25.0 °C
S=C=NCc1ccccc1 = assay: purified protein, by the assay type; conditions: pH 8.0
[3] = system: CCCC(=O)Oc1ccc([N+](=O)[O-])cc1; assay: purified protein, by the assay type; conditions: pH 8.0
[4] = system: CCCC(=O)Oc1ccc([N+](=O)[O-])cc1; assay: GSH-conjugation activity toward model substrates, variant; type: biochemical, Populus trichocarpa; conditions: mean ± S.D., n = 3, pH 8.0
Procedure: Peroxidase activity toward hydroperoxides was measured using an NADPH coupled spectrophotometric assay ([Pégeot et al., 2014]).
The measured velocities were corrected by subtracting the rate of the spontaneous nonenzymatic reaction, and three independent experiments were performed at each substrate concentration.

[5] = other: PtGSTU19 Y160A, fixed saturating GSH
[6] = other: PtGSTU19 Y160C, fixed saturating GSH
[7] = other: PtGSTU19 Y160F, fixed saturating GSH
[8] = other: line printed as PtGSTU19 C160Y in Table S4, fixed saturating GSH

PtGSTU19Y160A (Populus trichocarpa; Y160A), sequence (chain, as listed by the source Y160A): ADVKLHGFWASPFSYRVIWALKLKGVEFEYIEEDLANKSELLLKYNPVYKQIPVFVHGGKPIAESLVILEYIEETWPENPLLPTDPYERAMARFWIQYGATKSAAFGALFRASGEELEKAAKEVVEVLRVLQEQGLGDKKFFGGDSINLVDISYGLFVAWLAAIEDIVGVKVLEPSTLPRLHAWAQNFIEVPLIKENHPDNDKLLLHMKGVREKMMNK
PtGSTU20C160Y (Populus trichocarpa; C160Y), sequence (chain, as listed by the source C160Y): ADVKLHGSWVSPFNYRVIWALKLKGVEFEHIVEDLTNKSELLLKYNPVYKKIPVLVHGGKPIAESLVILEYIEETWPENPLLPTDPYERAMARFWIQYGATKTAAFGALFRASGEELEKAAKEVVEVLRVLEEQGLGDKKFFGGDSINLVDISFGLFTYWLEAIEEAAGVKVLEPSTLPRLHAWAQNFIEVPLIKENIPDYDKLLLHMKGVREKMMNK
PtGSTU19Y160C (Populus trichocarpa; Y160C), sequence (chain, as listed by the source Y160C): as the sequence (chain, as listed by the source Y160A) above, with A159C counted along it
PtGSTU19Y160F (Populus trichocarpa; Y160F), sequence (chain, as listed by the source Y160F): as the sequence (chain, as listed by the source Y160A) above, with A159F counted along it
PtGSTU19 (Populus trichocarpa), sequence (chain, as listed by the source): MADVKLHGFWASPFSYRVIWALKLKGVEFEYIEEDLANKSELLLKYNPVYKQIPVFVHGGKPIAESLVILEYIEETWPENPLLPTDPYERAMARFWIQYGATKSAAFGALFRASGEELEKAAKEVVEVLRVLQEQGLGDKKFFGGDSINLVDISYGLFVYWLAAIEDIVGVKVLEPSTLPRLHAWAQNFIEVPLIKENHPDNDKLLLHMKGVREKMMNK
PtGSTU20 (Populus trichocarpa), sequence (chain, as listed by the source): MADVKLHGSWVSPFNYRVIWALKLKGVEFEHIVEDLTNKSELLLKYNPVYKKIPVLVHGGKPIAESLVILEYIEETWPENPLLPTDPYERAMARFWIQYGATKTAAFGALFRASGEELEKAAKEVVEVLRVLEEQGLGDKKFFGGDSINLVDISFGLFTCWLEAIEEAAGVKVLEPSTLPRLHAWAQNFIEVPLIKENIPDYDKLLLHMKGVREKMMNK

Substance: Populus trichocarpa tau glutathione transferase GSTU19 (PtGSTU19) (enzyme)
- stoichiometry N [1]: 2

Substance: Populus trichocarpa tau glutathione transferase GSTU20 (PtGSTU20) (enzyme)
- stoichiometry N [2]: 2

Substance: PtGSTU19 (Populus trichocarpa)
- Km (S=C=NCCc1ccccc1): 48.4 ± 2.5 µM
- kcat (S=C=NCCc1ccccc1): 3.8 s⁻¹
- kcat/Km (S=C=NCCc1ccccc1): 79000 M⁻¹ s⁻¹
- Km (CCCCCC(O)C=CC=O): 56.4 ± 7.4 µM
- kcat (CCCCCC(O)C=CC=O): 0.11 s⁻¹
- kcat/Km (CCCCCC(O)C=CC=O): 2000 M⁻¹ s⁻¹
- Km (S=C=NCc1ccccc1): 52.7 ± 3.6 µM
- kcat (S=C=NCc1ccccc1): 7 ± 0.1 s⁻¹
- kcat/Km (S=C=NCc1ccccc1): 132200 ± 200 M⁻¹ s⁻¹
- Km [3]: 443.5 ± 31.1 µM
- kcat [3]: 0.04 ± 0.001 s⁻¹
- kcat/Km [3]: 100 ± 2 M⁻¹ s⁻¹

Substance: PtGSTU19Y160A (Populus trichocarpa; Y160A)
- Km [4, 5]: 534.6 ± 68.1 µM
- kcat [4, 5]: 0.050 ± 0.002 s⁻¹
- kcat/Km [4, 5]: 0.090 ± 0.004 103M-1.s-1

Substance: PtGSTU19Y160C (Populus trichocarpa; Y160C)
- Km [4, 6]: 518.3 ± 57.6 µM
- kcat [4, 6]: 0.050 ± 0.002 s⁻¹
- kcat/Km [4, 6]: 0.100 ± 0.003 103M-1.s-1

Substance: PtGSTU19Y160F (Populus trichocarpa; Y160F)
- Km [4, 7]: 693.2 ± 63.8 µM
- kcat [4, 7]: 0.050 ± 0.002 s⁻¹
- kcat/Km [4, 7]: 0.080 ± 0.003 103M-1.s-1

Substance: PtGSTU20 (Populus trichocarpa)
- Km (S=C=NCCc1ccccc1): 56.8 ± 4.1 µM
- kcat (S=C=NCCc1ccccc1): 5.1 s⁻¹
- kcat/Km (S=C=NCCc1ccccc1): 88900 M⁻¹ s⁻¹
- Km (CCCCCC(O)C=CC=O): 30.6 ± 3.5 µM
- kcat (CCCCCC(O)C=CC=O): 0.11 s⁻¹
- kcat/Km (CCCCCC(O)C=CC=O): 3600 M⁻¹ s⁻¹
- Km (S=C=NCc1ccccc1): 149.6 ± 17.6 µM
- kcat (S=C=NCc1ccccc1): 10.4 ± 0.3 s⁻¹
- kcat/Km (S=C=NCc1ccccc1): 69800 ± 2200 M⁻¹ s⁻¹
- Km [3]: 329.2 ± 28.1 µM
- kcat [3]: 0.02 ± 0.001 s⁻¹
- kcat/Km [3]: 60 ± 3 M⁻¹ s⁻¹

Substance: PtGSTU20C160Y (Populus trichocarpa; C160Y)
- Km [4, 8]: 326.2 ± 67.6 µM
- kcat [4, 8]: 0.020 ± 0.001 s⁻¹
- kcat/Km [4, 8]: 0.060 ± 0.003 103M-1.s-1
